The values below come from paper PMC2888443 (The Journal of Biological Chemistry, 2010).

In experiment [1] the target is LEDGF/p75 C-terminal fragment, LEDGF(Cterm), residues 325-530 (human) (UniProt O75475). Briefly: SEC-MALS.
For experiment [2], the target named is IN(tetra)·LEDGF(IBD) complex of two IN and one LEDGF(IBD), IN2LEDGF1 (HIV | human). Briefly: AUC.
For experiment [3], the target named is HIV integrase N-terminal and catalytic core domains, IN(NTD-CCD)(F185K) (HIV). Briefly: SEC-MALS. In general terms: In gel filtration, larger molecules generally elute earlier.
For experiment [4], the target named is LEDGF/p75 integrase binding domain, LEDGF(IBD) (human). The experiment is described as follows: SEC-MALS.
Experiment [5] concerns the target HIV integrase, full-length, IN(tetra) (C56S, F139D, F185H, C280S) (HIV). Briefly: AUC.
In experiment [6] the target is LEDGF/p75 integrase binding domain, LEDGF(IBD) (human). Briefly: AUC.
Experiment [7] deals with T1, LEDGF/p75 C-terminal fragment, LEDGF(Cterm), residues 325-530 (human, UniProt O75475 325-530).
T1 sequence: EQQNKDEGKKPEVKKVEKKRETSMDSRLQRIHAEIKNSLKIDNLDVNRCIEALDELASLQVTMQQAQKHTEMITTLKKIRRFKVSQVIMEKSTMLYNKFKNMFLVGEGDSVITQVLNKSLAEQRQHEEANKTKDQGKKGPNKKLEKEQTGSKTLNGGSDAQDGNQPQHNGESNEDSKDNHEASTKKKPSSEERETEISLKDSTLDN
The experiment is described as follows: SEC-MALS.

Regarding “HIV integrase, full-length, IN(tetra)(D116N) (enzyme)”, the stoichiometry N – broadly, the number of molecules, sites or subunits per partner or assembly – in experiment [1] was 1 IN:LEDGF.
“IN(tetra)·LEDGF(IBD) complex of two IN and one LEDGF(IBD), IN2LEDGF1”: the dissociation constant (Kd) (in general, the concentration at which binding is half-saturated) in experiment [2] was determined as 8.9 µM. This counts as single-digit micromolar.
With “HIV integrase N-terminal and catalytic core domains, IN(NTD-CCD)(F185K) (domain or fragment)”, the results for the stoichiometry N in experiment [3] and in experiment [4] were 2 and 1 IN:LEDGF, respectively.
In experiment [5], “HIV integrase, full-length, IN(tetra) (C56S, F139D, F185H, C280S) (enzyme)” returned a dissociation constant (Kd) of 9.3 µM. In addition, the stoichiometry N in experiment [6] and in experiment [4] was 2 IN:LEDGF throughout.

B1: HIV integrase, full-length, wild-type (enzyme)
chain: FLDGIDKAQEEHEKYHSNWRAMASDFNLPPVVAKEIVASCDKCQLKGEAMHGQVDCSPGIWQLDCTHLEGKVILVAVHVASGYIEAEVIPAETGQETAYFLLKLAGRWPVKTVHTDNGSNFTSTTVKAACWWAGIKQEFGIPYNPQSQGVIESMNKELKKIIGQVRDQAEHLKTAVQMAVFIHNFKRKGGIGGYSAGERIVDIIATDIQTKELQKQITKIQNFRVYYRDSRDPVWKGPAKLLWKGEGAVVIQDNSDIKVVPRRKAKIIRDYGKQMAGDDCVASRQDED
For B1, the “stoichiometry N” value in experiment [7] is 1 IN:LEDGF.
